PMC9482650, “Quantitative fragmentomics allow affinity mapping of interactomes” (Nature Communications, 2022)

Tests used:
Test in all cases: holdup assay
Design in all cases: key: below the threshold = too weak to quantify, mostly under pKd 3.1 to 4
APBA1_1, Q02410 = target: T1, APBA1_1, Q02410
T1 sequence (Q02410 651-752, limits assumed, looked up): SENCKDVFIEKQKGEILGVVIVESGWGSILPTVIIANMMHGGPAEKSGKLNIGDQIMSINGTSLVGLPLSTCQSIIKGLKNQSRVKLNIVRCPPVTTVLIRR

APBA1_2, Q02410 = target: T2, APBA1_2, Q02410
T2 sequence (Q02410 742-832, limits assumed, looked up): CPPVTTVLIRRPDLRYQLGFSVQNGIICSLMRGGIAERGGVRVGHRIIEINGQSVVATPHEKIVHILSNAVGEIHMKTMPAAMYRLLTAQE

ARHGAP21, Q5T5U3 = target: T3, ARHGAP21, Q5T5U3
T3 sequence (Q5T5U3 45-169, limits assumed, looked up): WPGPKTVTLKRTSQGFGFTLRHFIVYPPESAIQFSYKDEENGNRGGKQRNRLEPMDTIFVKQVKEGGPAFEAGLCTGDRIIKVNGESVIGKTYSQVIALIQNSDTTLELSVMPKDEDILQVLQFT

ARHGEF11, O15085 = target: T4, ARHGEF11, O15085
T4 sequence (O15085 42-136, limits assumed, looked up): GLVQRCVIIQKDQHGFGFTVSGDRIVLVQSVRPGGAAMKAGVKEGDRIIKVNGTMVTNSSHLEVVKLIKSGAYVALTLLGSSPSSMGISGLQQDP

DFNB31_3, Q9P202 = target: T5, DFNB31_3, Q9P202
T5 sequence (Q9P202 811-907, limits assumed, looked up): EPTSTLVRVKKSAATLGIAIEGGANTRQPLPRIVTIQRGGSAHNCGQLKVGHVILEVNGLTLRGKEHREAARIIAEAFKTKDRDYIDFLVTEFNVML

DLG2_3, Q15700 = target: DLG2_3, Q15700
DLG4_3, P78352 = target: DLG4_3, P78352
FRMPD1, Q5SYB0 = target: T6, FRMPD1, Q5SYB0
T6 sequence (Q5SYB0 52-145, limits assumed, looked up): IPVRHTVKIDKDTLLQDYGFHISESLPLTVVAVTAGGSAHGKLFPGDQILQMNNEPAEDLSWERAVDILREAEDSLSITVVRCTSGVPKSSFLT

FRMPD3, Q5JV73 = target: FRMPD3, Q5JV73
GORASP2, Q9H8Y8 = target: GORASP2, Q9H8Y8
GRID2IP_2, A4D2P6 = target: GRID2IP_2, A4D2P6
GRIP2_3, Q9C0E4 = target: GRIP2_3, Q9C0E4
Inadl_1, Q8NI35 = target: Inadl_1, Q8NI35
LAP2, Q96RT1 = target: LAP2, Q96RT1
LIN7C, Q9NUP9 = target: T7, LIN7C, Q9NUP9
T7 sequence (Q9NUP9 88-185, limits assumed, looked up): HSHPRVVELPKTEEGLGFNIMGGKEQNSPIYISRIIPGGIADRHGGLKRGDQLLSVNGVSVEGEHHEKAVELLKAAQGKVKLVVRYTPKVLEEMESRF

MAGI2_5, Q86UL8 = target: MAGI2_5, Q86UL8
MAGI3_2, Q5TCQ9 = target: MAGI3_2, Q5TCQ9
MAST1, Q9Y2H9 = target: MAST1, Q9Y2H9
NHERF2_2, Q15599 = target: NHERF2_2, Q15599
NHERF4_4, Q86UT5 = target: NHERF4_4, Q86UT5
NOS1, P29475 = target: NOS1, P29475
PDZD2_2, O15018 = target: T8, PDZD2_2, O15018
T8 sequence (O15018 329-429, limits assumed, looked up): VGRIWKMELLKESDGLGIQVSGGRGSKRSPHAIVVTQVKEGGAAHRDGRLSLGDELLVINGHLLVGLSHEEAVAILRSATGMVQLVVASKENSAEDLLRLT

SCRIB_3, Q14160 = target: SCRIB_3, Q14160
SNTG2, Q9NY99 = target: T9, SNTG2, Q9NY99
T9 sequence (Q9NY99 68-166, limits assumed, looked up): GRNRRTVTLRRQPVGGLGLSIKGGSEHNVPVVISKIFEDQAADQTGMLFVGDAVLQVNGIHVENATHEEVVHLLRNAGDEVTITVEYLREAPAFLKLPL

SNX27, Q96L92 = target: SNX27, Q96L92
TJP3_3, O95049 = target: T10, TJP3_3, O95049
T10 sequence (O95049 375-456, limits assumed, looked up): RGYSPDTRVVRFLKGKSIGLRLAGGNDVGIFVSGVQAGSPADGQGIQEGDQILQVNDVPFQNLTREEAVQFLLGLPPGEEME

TX1BP3, O14907 = target: T11, TX1BP3, O14907
T11 sequence (O14907 10-122, limits assumed, looked up): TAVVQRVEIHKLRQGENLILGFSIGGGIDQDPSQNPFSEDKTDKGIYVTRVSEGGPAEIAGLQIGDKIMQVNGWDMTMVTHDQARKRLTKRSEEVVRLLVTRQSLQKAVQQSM

[1] = plain residues with an end cap or a label only (N-terminal biotin on a linker: ttds)
[2] = plain residues with an end cap or a label only (N-terminal biotin on a linker: ahx)

Sequence of NOS1, P29475 (P29475 9-101): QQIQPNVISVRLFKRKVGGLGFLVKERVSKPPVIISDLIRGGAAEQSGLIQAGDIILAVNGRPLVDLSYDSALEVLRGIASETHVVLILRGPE
Sequence of NHERF4_4, Q86UT5 (Q86UT5 464-550): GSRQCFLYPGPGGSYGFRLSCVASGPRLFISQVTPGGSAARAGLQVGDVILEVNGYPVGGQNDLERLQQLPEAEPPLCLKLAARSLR
Sequence of MAGI2_5, Q86UL8 (Q86UL8 915-1017): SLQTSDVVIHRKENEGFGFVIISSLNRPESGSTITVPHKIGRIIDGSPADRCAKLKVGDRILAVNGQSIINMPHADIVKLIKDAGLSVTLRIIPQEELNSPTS
Sequence of FRMPD3, Q5JV73 (Q5JV73 12-100): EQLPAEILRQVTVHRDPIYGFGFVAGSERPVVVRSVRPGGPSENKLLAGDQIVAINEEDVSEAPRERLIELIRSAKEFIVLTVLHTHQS
Sequence of DLG4_3, P78352 (P78352 306-403): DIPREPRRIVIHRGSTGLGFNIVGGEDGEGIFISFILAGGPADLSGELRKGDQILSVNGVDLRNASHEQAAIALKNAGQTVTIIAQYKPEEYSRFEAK
Sequence of GRID2IP_2, A4D2P6 (A4D2P6 272-370): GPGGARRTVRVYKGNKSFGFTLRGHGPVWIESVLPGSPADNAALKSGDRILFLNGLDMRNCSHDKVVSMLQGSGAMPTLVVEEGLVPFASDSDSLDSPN
Sequence of MAGI3_2, Q5TCQ9 (Q5TCQ9 398-503): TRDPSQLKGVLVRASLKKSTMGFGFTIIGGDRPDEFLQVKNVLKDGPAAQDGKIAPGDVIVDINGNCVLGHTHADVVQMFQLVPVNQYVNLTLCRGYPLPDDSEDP
Sequence of Inadl_1, Q8NI35 (Q8NI35 113-229): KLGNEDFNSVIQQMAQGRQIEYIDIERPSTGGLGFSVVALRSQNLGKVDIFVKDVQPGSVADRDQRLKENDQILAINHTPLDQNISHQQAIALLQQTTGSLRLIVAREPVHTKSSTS
Sequence of SCRIB_3, Q14160 (Q14160 999-1103): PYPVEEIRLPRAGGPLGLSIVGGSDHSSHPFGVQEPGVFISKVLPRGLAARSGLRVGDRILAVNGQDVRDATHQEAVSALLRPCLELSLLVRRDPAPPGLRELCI
Sequence of GRIP2_3, Q9C0E4 (Q9C0E4 238-339): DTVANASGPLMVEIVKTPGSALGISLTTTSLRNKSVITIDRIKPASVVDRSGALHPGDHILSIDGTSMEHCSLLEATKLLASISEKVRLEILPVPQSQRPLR
Sequence of LAP2, Q96RT1 (Q96RT1 other isoform, or with tags, fused parts or gaps): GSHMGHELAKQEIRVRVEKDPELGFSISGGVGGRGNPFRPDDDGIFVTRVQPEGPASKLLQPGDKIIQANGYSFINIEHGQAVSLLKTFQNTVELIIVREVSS
Sequence of NHERF2_2, Q15599 (Q15599 142-238): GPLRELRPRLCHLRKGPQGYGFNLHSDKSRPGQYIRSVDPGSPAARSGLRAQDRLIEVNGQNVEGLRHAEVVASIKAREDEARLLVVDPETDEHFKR
Sequence of MAST1, Q9Y2H9 (Q9Y2H9 962-1065): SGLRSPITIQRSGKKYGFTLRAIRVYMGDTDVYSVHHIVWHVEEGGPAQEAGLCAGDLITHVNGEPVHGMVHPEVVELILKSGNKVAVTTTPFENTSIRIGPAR

B1: PODXL, O00592 (peptide)
chain: DLDEEEDTHL
With B1 the pKd (APBA1_1, Q02410; [1]) was “below the threshold”, the pKd (APBA1_2, Q02410; [1]) was “below the threshold” and the pKd (ARHGAP21, Q5T5U3; [1]) was 3.56. The pKd (ARHGEF11, O15085; [1]) was “below the threshold”, the pKd (DFNB31_3, Q9P202; [1]) was “below the threshold” and the pKd (DLG2_3, Q15700; [1]) was “below the threshold”. The pKd (DLG4_3, P78352; [1]) was “below the threshold”, the pKd (FRMPD1, Q5SYB0; [1]) was “below the threshold” and the pKd (FRMPD3, Q5JV73; [1]) was 3.6. The pKd (GORASP2, Q9H8Y8; [1]) was 3.48, the pKd (GRID2IP_2, A4D2P6; [1]) was “below the threshold” and the pKd (GRIP2_3, Q9C0E4; [1]) was “below the threshold”. For the same binder, the pKd (Inadl_1, Q8NI35; [1]) was “below the threshold”, the pKd (LAP2, Q96RT1; [1]) was “below the threshold” and the pKd (LIN7C, Q9NUP9; [1]) was “below the threshold”. The pKd (MAGI2_5, Q86UL8; [1]) was “below the threshold”, the pKd (MAGI3_2, Q5TCQ9; [1]) was “below the threshold” and the pKd (MAST1, Q9Y2H9; [1]) was 4.19. For the same binder, the pKd (NHERF2_2, Q15599; [1]) was 5.39, the pKd (NHERF4_4, Q86UT5; [1]) was “below the threshold” and the pKd (NOS1, P29475; [1]) was “below the threshold”. The pKd (PDZD2_2, O15018; [1]) was 4, the pKd (SCRIB_3, Q14160; [1]) was “below the threshold” and the pKd (SNTG2, Q9NY99; [1]) was “below the threshold”. For the same binder, the pKd (SNX27, Q96L92; [1]) was 5.15, the pKd (TJP3_3, O95049; [1]) was 3.5 and the pKd (TX1BP3, O14907; [1]) was “below the threshold”.

B2: MTMR1, Q13613 (peptide)
chain: HSATSVHTSV
In the case of B2, the pKd (APBA1_1, Q02410; [2]) is reported as “below the threshold”, the pKd (APBA1_2, Q02410; [2]) is reported as “below the threshold” and the pKd (ARHGAP21, Q5T5U3; [2]) is reported as 3.49. For the same binder, the pKd (ARHGEF11, O15085; [2]) was 3.75, the pKd (DFNB31_3, Q9P202; [2]) was “below the threshold” and the pKd (DLG2_3, Q15700; [2]) was 4.44. For the same binder, the pKd (DLG4_3, P78352; [2]) was “below the threshold”, the pKd (FRMPD1, Q5SYB0; [2]) was “below the threshold” and the pKd (FRMPD3, Q5JV73; [2]) was “below the threshold”. The pKd (GORASP2, Q9H8Y8; [2]) was “below the threshold”, the pKd (GRID2IP_2, A4D2P6; [2]) was “below the threshold” and the pKd (GRIP2_3, Q9C0E4; [2]) was “below the threshold”. For the same binder, the pKd (Inadl_1, Q8NI35; [2]) was “below the threshold”, the pKd (LAP2, Q96RT1; [2]) was “below the threshold” and the pKd (LIN7C, Q9NUP9; [2]) was “below the threshold”. The pKd (MAGI2_5, Q86UL8; [2]) was 4.02, the pKd (MAGI3_2, Q5TCQ9; [2]) was 3.59 and the pKd (MAST1, Q9Y2H9; [2]) was 3.67. The pKd (NHERF2_2, Q15599; [2]) was “below the threshold”, the pKd (NHERF4_4, Q86UT5; [2]) was “below the threshold” and the pKd (NOS1, P29475; [2]) was 3.55. It also gave a pKd (PDZD2_2, O15018; [2]) of 4.23, a pKd (SCRIB_3, Q14160; [2]) of 3.74 and a pKd (SNTG2, Q9NY99; [2]) of 3.5. For the same binder, the pKd (SNX27, Q96L92; [2]) was 3.96, the pKd (TJP3_3, O95049; [2]) was “below the threshold” and the pKd (TX1BP3, O14907; [2]) was 3.8.

B3: MAPK12, P53778 (peptide)
chain: GARVSKETPL
In the case of B3, the pKd (APBA1_1, Q02410; [1]) is reported as “below the threshold”, the pKd (APBA1_2, Q02410; [1]) is reported as 3.74 and the pKd (ARHGAP21, Q5T5U3; [1]) is reported as “below the threshold”. For the same binder, the pKd (ARHGEF11, O15085; [1]) was 3.48, the pKd (DFNB31_3, Q9P202; [1]) was “below the threshold” and the pKd (DLG2_3, Q15700; [1]) was 4.21. For the same binder, the pKd (DLG4_3, P78352; [1]) was 4.03, the pKd (FRMPD1, Q5SYB0; [1]) was “below the threshold” and the pKd (FRMPD3, Q5JV73; [1]) was “below the threshold”. For the same binder, the pKd (GORASP2, Q9H8Y8; [1]) was “below the threshold”, the pKd (GRID2IP_2, A4D2P6; [1]) was 3.53 and the pKd (GRIP2_3, Q9C0E4; [1]) was “below the threshold”. The pKd (Inadl_1, Q8NI35; [1]) was “below the threshold”, the pKd (LAP2, Q96RT1; [1]) was “below the threshold” and the pKd (LIN7C, Q9NUP9; [1]) was “below the threshold”. For the same binder, the pKd (MAGI2_5, Q86UL8; [1]) was “below the threshold”, the pKd (MAGI3_2, Q5TCQ9; [1]) was 4.17 and the pKd (MAST1, Q9Y2H9; [1]) was 4.65. For the same binder, the pKd (NHERF2_2, Q15599; [1]) was 4.09, the pKd (NHERF4_4, Q86UT5; [1]) was “below the threshold” and the pKd (NOS1, P29475; [1]) was 3.82. For the same binder, the pKd (PDZD2_2, O15018; [1]) was “below the threshold”, the pKd (SCRIB_3, Q14160; [1]) was 5.07 and the pKd (SNTG2, Q9NY99; [1]) was 4.18. For the same binder, the pKd (SNX27, Q96L92; [1]) was 5, the pKd (TJP3_3, O95049; [1]) was “below the threshold” and the pKd (TX1BP3, O14907; [1]) was 4.26.
